Data from US20240218070A1 (MERUS N V, published 2024).

B1: anti-human FAP bivalent monospecific IgG comprising heavy chain variable region SEQ ID NO: 11 (antibody, V domains shown)
VH: EVQLVESGGGLVQPGGSLRLSCAASGFTFSSYAMIWVRQAPGKGLEWVSAISGSGGYTFNADSVKGRFTMSRDNSKNTLYLQMNSLRAEDTAVYYCAKRDGGYEGGAFDIWGQGTLVTVSS
VL: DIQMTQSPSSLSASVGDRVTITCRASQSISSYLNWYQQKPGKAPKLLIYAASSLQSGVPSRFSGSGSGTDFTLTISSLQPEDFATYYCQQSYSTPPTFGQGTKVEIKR
notes: IgG1 format, common light chain VK1-39/JK1
B2: anti-human FAP bivalent monospecific IgG comprising heavy chain variable region SEQ ID NO: 69 (antibody, V domains shown)
VH: EVQLVETGGGLIQPGGSLRLSCAASGFTVSSNYMSWVRQAPGKGLEWVSVIYSGGSTYYADSVKGRFTISRDNSKNTLYLQMNSLRAEDTAVYYCARGPTDAYPYLDYLWGQGTLVTVSS
VL: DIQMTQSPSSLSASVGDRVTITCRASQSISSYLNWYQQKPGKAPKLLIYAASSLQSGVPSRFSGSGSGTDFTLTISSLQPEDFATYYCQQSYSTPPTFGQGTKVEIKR
notes: IgG1 format, common light chain VK1-39/JK1; also called human/mouse cross-reactive FAP IgG
B3: anti-human FAP bivalent monospecific IgG comprising heavy chain variable region SEQ ID NO: 15 (antibody, V domains shown)
VH: QLQLQESGPGLVKPSETLSLTCTVSGGSISSSSYFWAWIRQPPGKGLEFIGNIYYSGSTYYNPSLKSRVTISVDTSKNQFSLKLSSVTAADTAVYYCARPSYYGSGNYYFAFWGQGTLVTVSS
VL: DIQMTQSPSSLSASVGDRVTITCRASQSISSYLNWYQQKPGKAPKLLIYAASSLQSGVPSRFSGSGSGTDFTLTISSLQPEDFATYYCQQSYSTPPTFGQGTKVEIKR
notes: as for B1
B4: anti-human FAP bivalent monospecific IgG comprising heavy chain variable region SEQ ID NO: 19 (antibody, V domains shown)
VH: EVQLVESGGGLVKPGGSLRLSCAASGFPFNYAWMSWVRQAPGKGLEWVGRIKPKTSGGATDYAAPVKDRFTISRDDSRNTLYLQMNSLKTEDTAVYYCSAREDIWNFFFDLWGQGTLVTVSS
VL: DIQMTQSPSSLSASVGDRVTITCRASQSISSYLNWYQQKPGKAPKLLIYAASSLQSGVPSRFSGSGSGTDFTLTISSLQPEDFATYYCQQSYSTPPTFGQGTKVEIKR
notes: as for B1

Key:
[1] = target: human CD26 (huCD26) expressed on 293FF cells (human, UniProt P27487 1-766); assay: FACS, 293FF cells transiently transfected with huCD26
human CD26 (huCD26) expressed on 293FF cells, sequence (P27487 whole entry): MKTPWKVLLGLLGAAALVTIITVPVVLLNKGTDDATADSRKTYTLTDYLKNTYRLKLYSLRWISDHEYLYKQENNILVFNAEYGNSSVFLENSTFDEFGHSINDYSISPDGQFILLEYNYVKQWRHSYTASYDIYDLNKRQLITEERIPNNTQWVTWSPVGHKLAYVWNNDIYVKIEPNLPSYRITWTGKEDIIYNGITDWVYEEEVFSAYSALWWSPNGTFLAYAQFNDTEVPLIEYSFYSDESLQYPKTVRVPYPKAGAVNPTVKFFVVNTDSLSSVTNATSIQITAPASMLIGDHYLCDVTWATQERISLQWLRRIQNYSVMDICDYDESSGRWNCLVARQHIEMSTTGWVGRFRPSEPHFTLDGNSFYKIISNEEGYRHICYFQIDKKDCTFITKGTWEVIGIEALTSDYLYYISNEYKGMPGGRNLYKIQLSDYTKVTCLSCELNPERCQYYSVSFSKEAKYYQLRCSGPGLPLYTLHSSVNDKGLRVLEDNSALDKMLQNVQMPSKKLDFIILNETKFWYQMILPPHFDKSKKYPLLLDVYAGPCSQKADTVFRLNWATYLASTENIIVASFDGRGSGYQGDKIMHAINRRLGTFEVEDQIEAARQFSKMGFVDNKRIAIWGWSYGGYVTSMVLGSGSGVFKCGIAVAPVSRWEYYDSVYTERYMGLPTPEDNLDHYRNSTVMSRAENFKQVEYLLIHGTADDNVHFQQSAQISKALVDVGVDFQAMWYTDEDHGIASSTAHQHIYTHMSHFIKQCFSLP
Experimental: The binding of all test and control antibodies to the cells was tested at a single concentration of 2.5 ug/ml. Goat-anti-human IgG F(ab)2-PE (Invitrogen, H10104) was used as secondary antibody (1:100 in FACS buffer). Ab0625 was used at 10 ug/ml and its binding was detected using Ab0250 (Becton Dickinson, 550767) (1:100 in FACS buffer). The FACS buffer containing PBS (Gibco, cat. #10010-015), 0.5% BSA (Thermo Scientific, cat. #37525), and 2 mM EDTA (Invitrogen, cat. #15575-020) was kept ice cold throughout the assay.
The target cells were harvested, counted, and centrifuged for 5 min at 300 g at 4 °C. Cells were then resuspended in FACS buffer at a concentration of 1×10⁶ cells/ml and transferred (200,000 cells/well) to a U-bottom 96-well FACS plate (BD, cat. #353910). Cells were then centrifuged for 3 min at 300 g at 4° C. and supernatant was discarded. 50 μl of primary antibody solutions were added to the cells, mixed, and incubated for 30 min at 2-8° C. in the dark. Cells were washed by adding 150 μl FACS buffer and centrifuged for 3 min at 300 g at 4° C. Supernatant was discarded, and cells were washed again by adding 200 μl FACS buffer to the plate. Cells were then centrifuged for 3 min at 300 g at 4° C. and afterwards the supernatant was discarded. 50 μl of secondary antibody solutions were added to the cells, mixed, and incubated for 30 min at 2-8° C. in the dark. Cells were then washed by adding 150 μl FACS buffer to the plate and centrifuged for 3 min at 300 g at 4° ° C. Supernatant was discarded and cells were washed again by adding 200 μl FACS buffer to the plate and centrifuged for 3 min at 300 g at 4° C. Supernatant was discarded and cells were fixated by adding 100 μl/well ice-cold Fixation buffer (2% formaldehyde solution in PBS, Sigma-Aldrich, cat. #47608-250ML-F). Cells were incubated for 15 min on ice in the dark. Afterwards, 100 μl ice-cold PBS was added to the cells and cells were centrifuged for 3 at 300 g at 4° C. Supernatant was discarded and cells were resuspended in 120 μl FACS buffer.

[2] = target: T1, huFAP-His recombinant protein (R&D Systems cat. #3715-SE) (human, UniProt Q12884 26-760); assay: competition ELISA, huFAP-His coated, IgG at 0.05 ug/ml; competitor sibrotuzumab analog Fab
T1 construct: Bought His-tagged recombinant protein; also called huFAP protein; human FAP (R&D, cat. No. 3715-SE)
T1 sequence: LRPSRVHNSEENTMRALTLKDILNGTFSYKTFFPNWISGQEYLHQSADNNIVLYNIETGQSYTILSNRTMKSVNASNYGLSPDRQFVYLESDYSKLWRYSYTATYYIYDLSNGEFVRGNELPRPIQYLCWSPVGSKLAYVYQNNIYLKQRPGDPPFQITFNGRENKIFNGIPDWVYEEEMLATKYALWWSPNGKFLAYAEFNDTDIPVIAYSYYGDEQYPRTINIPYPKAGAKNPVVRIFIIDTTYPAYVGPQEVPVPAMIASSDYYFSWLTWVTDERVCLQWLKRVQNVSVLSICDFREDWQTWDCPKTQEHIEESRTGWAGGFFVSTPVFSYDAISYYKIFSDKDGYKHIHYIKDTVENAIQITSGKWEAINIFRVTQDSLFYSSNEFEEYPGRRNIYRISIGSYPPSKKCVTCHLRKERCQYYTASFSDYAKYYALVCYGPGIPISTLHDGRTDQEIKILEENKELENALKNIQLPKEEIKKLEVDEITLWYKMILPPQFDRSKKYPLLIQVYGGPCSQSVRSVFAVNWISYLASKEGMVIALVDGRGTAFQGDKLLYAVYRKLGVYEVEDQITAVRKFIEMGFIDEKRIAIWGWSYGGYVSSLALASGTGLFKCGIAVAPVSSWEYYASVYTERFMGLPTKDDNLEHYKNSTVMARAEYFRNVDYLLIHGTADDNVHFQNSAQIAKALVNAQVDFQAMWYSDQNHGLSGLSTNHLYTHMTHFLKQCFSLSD
Experimental: ELISA was used to investigate the competitive binding of the human anti-FAP antibody panel with Fab fragments generated from the sibrotuzumab analog to huFAP-His protein (R&D Systems cat. #3715-SE).
The huFAP-His protein was coated (0.5 ug/ml, 50 μl/well) on two 96-wells ELISA plates (Certified Nunc-Immuno Maxisorp F96, Greiner Bio-One, cat. #655061). The plates were sealed (EASYseal, Greiner, cat. #676001) and incubated overnight at 4° ° C. The plates were washed with PBS/0.05% Tween 20 (PBS, Gibco, cat. #10010-015) (Tween 20, Merck, cat. #8.22184.0500) using the ELISA plate washer (BioTek 405 TS). Afterwards, the plates were emptied. Fab fragments of sibrotuzumab analog (25 ug/ml) were incubated on one plate for 30 min at RT, whereas the second plate was incubated with 300 μl/well PBS/2% BSA block buffer (BSA, Sigma, cat. #A3294-500 g) for 1 hour at RT. Afterwards, the plates were emptied. Antibodies from the human anti-FAP panel (0.05 ug/ml, 50 μl/well) were added, plates were covered with a EASYseal, and incubated for one hour at RT. The plates were washed three times with wash buffer using the ELISA washer and emptied. […] The plates were then washed three times with wash buffer using the ELISA washer and emptied. BD OptEIATMB Substrate Reagent Set (BD, cat. #555214) was then added to the wells (50 μl/well) and developed for maximal 10 min. Afterwards, 1 M H2SO4 (50 μl/well) was added to the wells to stop the staining reaction (color changes from blue to yellow). The plates were then measured using an ELISA plate reader (BioTek ELx808).

Binder | binding result [1] | binding result [2]
B1 | no binding (tested: 2.5 ug/ml) | binds
B2 | no binding (tested: 2.5 ug/ml) | –
B3 | no binding (tested: 2.5 ug/ml) | binds
B4 | no binding (tested: 2.5 ug/ml) | binds
